Assay results as given in the nanobody polyreactivity screen of Harvey et al. (2022).

Assay: yeast display, Sf9 membrane polyspecificity reagent, FACS + sequencing; frameworks hold sequencing errors
Method in brief: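 After 36–48 hours of galactose induction, yeast (Saccharomyces cerevisiae BJ5465) displaying a synthetic nanobody library were stained at 4 °C for 1 hour with 10% biotinylated, detergent-solubilized Sf9 membrane reagent. Streptavidin microbeads enriched the stained cells before FACS sorting into low and high (top ~1%) gates on anti-HA and streptavidin fluorescence. Each clone's polyreactivity label reflects its gate of origin.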

Row | Sequence | polyreactivity (PSR sort gate)
1 | QVQLVESGGGLVQAGGSLRLSCAASGFIFDVYAMGWYRQAPGKERELVAAISRSGGSTHYADSVKGRFTISRDNAKNTVYLQMNSLKPEDTAVYYCATGIRVGYAKYDYWGQGTQVTVSS | high polyreactivity
2 | QVQLVESGGGLVQAGGSLRLSCAASGSTFEYNAMGWYRQAPGKERELVASSTNYADSVKGRFTISRDNAKNTVYLQMNSLKPEVTAVYYCAAYQDYVYSESLFSVSARMYYWGQGTQVTVSS | low polyreactivity
3 | QVQLVESGGGLVQAGGSLRLSCAASGMTFFTYSMGWYRQAPGKERELVAAISGSGGSTYYADSVKGRFTISRDNAKNTVYLQMNSLKPEDTAVYYCAKRSWIVYDYWGQGTQVTVSS | low polyreactivity
4 | QVQHVESGGALVQAGGSLRLSCADSGRTFIFYAMGWYRQAPGKETELVASTSSGGSTNYADSVKGRFTISRDNAKNTVYLQMNILKPEDTAVYYCATRQYLYYSRGYGYWGQGTKVTVSS | low polyreactivity
5 | QVQLVESGGGLVQAGGSLRLSCAASGRTFTTNAMGWYRQAPGKERELVAAITIGDDTYYADSVKGRFTISRDNAKNTVYLQMNSLKPEDTAVYYCNVDGRSDGDDYWGQGTQVTVSS | low polyreactivity
6 | QVQLVESGGGLVQAGGSLRLSCAASGITFTSYAMGWYRQAPGKERELVASIDSDDSTNYADSVKGRFTISRDNAKNTVYLQMNSLKPEDTAVYYCAASDNDDWYYVYHYDYWGQGTQVTVSS | low polyreactivity
7 | QVQLVESGGGLVQAGGRLRLSCAASGRTFGVYVMGWYRQAPGKERELVAAISSSGGLTYYADSVKGRFTISRDNAKNTVYLQMNSMKPEDTAVYYCNAVRRREERDGPPNPMDYWGQGTQVTVSS | high polyreactivity
8 | QVQLVESGGGLVQAGGSLRLSCAASGFIFYGNAMAWSRQAPGKEREFVAAINGRGVSTYYADSVKGRFTISRDNAKNSDYLQMNSLKPEDTAVYYCNKVYWGRGPLEYWGQGTQVTVSS | high polyreactivity
9 | QVQLVESGGGLVQAGGSLRLSCAASGSTFGYYTMGWYRQAPGKERELVASIDVSGDSTSYADSVKGRFTISRDNAKNTVYVQMNSLKPEDTAVYYCNTGRYPTSPTHNYWGQGTHVTVSS | low polyreactivity
10 | QVQLVESGGGIVQAGGSLRVSCAASGSIFLDNAMGWYRQAPGKERELVADISYSGGSTYYADSVKGRFTISRDNAKNTVYLQMNSLKPEDTAVYYCAAGVQLTVPPLRSSVTEYDYWGQGTQVTVSS | low polyreactivity
11 | QVQLVESGGGVVQAGGSLRLSCAASGLTFKFYAMGWYIQAPGKERELVAAINRSGSSTYYADSVKGRFTISRDNAKNTVYLQMNSLKPEDTAVYYCAKDSFTSTRQYDYWGQGTQVTVSS | low polyreactivity
12 | QVQLVDSGGGLVQAGGSLRLSCDASGFIFERYAMGWYRQAPGKERELVAGIYSGGSTYYADSVKGRFTISRDNAKNTVYLQMNSLKPEDTAVYYCAPYRRQHIIYNYWGQGTQVTVSS | high polyreactivity
13 | QVQLVESGGGLVQAGGSLRLSCAASGFTFNPNAMGWYRQAPGKERELVAPITRSGGSTYYADSVKGRFTISRDNAKNTVYLQMNSLKPEDTAVYYCNAPFRVSTTRRRYPGIDSHYYWGQGTQVTVSS | high polyreactivity
14 | QVQLVESGGGLVQAGGSLRLSCAASGIILYWNAMGWYRQAPGKERELVARITSGGSTNYADSVKGRFTISRDNAKNTVYLQMNSLKPEDTAVYYCAADYKAYGRSYDYWGQGTQVTVSS | low polyreactivity
15 | QVQLVESGGGLVQAGGSLRLSCAASGRTFGYNAMGWYRQAPGKERELVAVITSSGGRTYADSVKGRFTISRDNAKNTVYLQMNSLKPEDTAVYYCATRTRLAQYSRGRYRYDYWGQGTQVTVSS | high polyreactivity
16 | QVQLVESGGGLVQAGGSLRLSCAASGSIVSYYAMGWYRKAPGKERELVAAISKSGGRTYYADSVKGRFTISRDNAKNTVYLQMNSLKPEDTAVYYCAAPATYKYEYWGQGTQVTVSS | high polyreactivity
17 | QVQLVESGGGLVQAGGSLRLSCAASGFIFWYYAMGWYRQAPGKERELVAAINSSGGSTYYADSVKGRFTISRDNAKNTVSLQMNSLKPEDTAVYYCAARAYQRGNYWGQGTQVTVSS | high polyreactivity
18 | QVQLVESGGGLVQAGGSLRLSCAASGRTFGKNAMGWYRQAPGKEREFVAAITSRGGSTYYADSVKGRFTISRDNAKNTVYLQMNSLKPEDTAVYYCAADYYQWSTFLGVYEYDYWGQGTQVTVSS | low polyreactivity
19 | QVQLVESGGGLVQAGGSLRLSCAASAAIFTKNAMGWYRQAPAKERELVAAITGSGASTYYADSVKGRFTISRDNAKNTVYLQMNSLKPEDTAVYYCNTDSPYGWEGEFDYWGQGTQVTVSS | high polyreactivity
20 | QVQLVESGGGLVQAGGSLRLSCAASGFIFNYYVMGGYRQAPGKERELVATISWRGGRTYYADSVKGRFTISRDNAKNTVYLQMNSLKPEDTAVYYCAADSFYYRPEYDYWGQGTQVTVSS | low polyreactivity
21 | QVQLVESGGGLVQAGGSLRLSCAASGSTFYRNAMGWYRQAPGKERELVAVISISDGSTYADSVKGRFTISRDNAKNTVYLQMNSLKPEDTAVYYCAKVLNPLDYYDFDYWGQGTQVTVSS | low polyreactivity
22 | QVKLVESGGGLVQAGGSLRFSCAASGSTFTKNARGWYRQAPGKERELVAGISRSGGNTYYADSVMGRFTISRDNSKNTVYLQLNRLKPEDTAVSYCAKVVRGIDSNLDDYWGQGTQVTVSS | high polyreactivity

Row | Sequence | polyreactivity (PSR sort gate)
23 | QVQLVESGGGLDQAGGSLRLSCAASGSTFSQYVMGWYRQAPGKERELVAANSSGGSTYYADSVKGRFTISRDNAKNTVYLQMNSLKPEDTAVYYCAAKYDGSYVGLYWYSMNYWGQGTQVTVSS | low polyreactivity
24 | QVQLVESGGGLVQAGGSLRLSCAASGNILSVYTLGWYRQAPGKERELVANITYSGDRTYADSVQVRFTISRDNAKTTVYLQMKILKPEDTAVYYCSKDGYPTGGPYWGGMDYWGQGTQVTVSS | low polyreactivity
25 | QVQLVESGGGLVQAGGSLRLICAASGIIFATYAMGWYRQAPGKERELVAVISNDGSTHYADSVKGRFTISRDNAKNTVYLQMNSLKPEDTAVYYCAARYPYDWRHDYWGQGTQVTVSS | low polyreactivity
26 | QVQLVESGGGLVQAGGSLRLSCAASGYTLGVNAMGWSRQAPGKERELVAAINYIDTRTYYADSVKGRFTISRDNAKNTVYLKLNSLKPEDTAVYYCAARPYVPWVKRYYYWGQGTQVTVSS | low polyreactivity
27 | QVLLQESGSGLVQAGGSLRLSCAASGTISTDIRIGLYRLAPRKEREFVASIDGCSTTYYADSVKGRFTISRDNAKNSVYLQMNSLKPEVTAMYYCAAREATEFYLYYWGQGTQVTVSS | low polyreactivity
28 | QVQLVESGGGLVQAGGSLRLSCAASGSTFAKYVMGWYRQAPGKERELVAAISRRGSSTYYADSVKGRFTISRDNAKNTVYLQMNSLKPEDTAVYYCAARFRYSGFEGMDYWGQGTQVTVSS | high polyreactivity
29 | QVQLVESGGGLVQAGGSLRLSCAASGSIFDTYAMGWYRQAPGKEREFVAAISGTDGSTYYADSVKGRFTISRDNAKNTVYLQMNSLKPEDTAVYYCNAEPPRGDTVSSGGEMDYWGQGTQVTVSS | low polyreactivity
30 | QVQLVESGGGVVQAGGSLRLSCAATGSIFISYDTGLYRQAPGKESELVAAITWSGDSTYYADSVKARFTISRDNAKNSVYLQMNSLKPEDTAVYYCAADWYFRNQRGYYWGQGTQVTVSS | low polyreactivity
31 | QVQLVESGGGLVQAGGSLRLSCAASGIIYYENTMGWYRQAPGKERELVAPINSGGSTYYADCVKGRFTISRDNAKNTVYLQMNSLKPEDTAVYYCAADDYSGLYYSSTYRYEYWGQGTQVTVSS | low polyreactivity
32 | QDQLVESWGCLVQAGGSLRLSCAASRRIFGGHTMGWYRQAPGKERELVAAITSGRSTTYADSVKGRFTISRDNAKNSVYFLMNSLKPEDTAVDYCAARYVYPNQWTPYIRPYDYWGQGTQVTVSS | low polyreactivity
33 | QVQLVESGGGLVQAGGSLRLSCAASGFIFSKYTMGWYRQAPGKETELVAAISSGGRTYYADSVKGRFTISRDNAKNTVYLQMNSLKPEDTAVYYCAVRGYIASQQAAGGGRNYYYWGQGTQVNVSS | high polyreactivity
34 | QVQLVESGGGLVQAGGSLRLSCAASGRTFDYYAMGWYRQAPGKERELVAAITLSAGRTYYADSVKGRFTISRDNAKNTVYLQMNSLKPEDTAVYYCAARFRRLQRFYYWGQGTQVTVSS | high polyreactivity
35 | QVQLVESGGGLVQAGGSLRLSCAASGRTFAQYVMGWYRQAPGTERELVAAISGIGGSTYYADSVKGRFTISRDNAKNTVYLQMNSLNPEDTAVYYCAVELYWYPGYDYWGQGTQVTVSS | low polyreactivity
36 | QVQLVESGGGLVQAGGSLRLSCAASGSTFGSYAMGWYRQAPGKERELVAAIRRGGSTTYADSVKGRFTISRDNAKNTVYLQMYSLKPEDTAVYYCAAPELNEGLPLDYWGQGTQVTVSS | low polyreactivity
37 | QVQLVESGGGLVQAGGSLRLSCAASGFTFKLNAMGWYRQAPGKERELVATISSSGGSTFYADSVKGRFTISRDNAKNTVYLQMNSLKPEDTAVYYCAADSGYGPYYYWGQGTQVTVSS | high polyreactivity
38 | QVQLVESAGGLVQAGVSLRLSCAASGLTFVQYAMGWYIQAPGKERELVAAISRSGGSTYYADSVKGRFTISRDNAKNTVYLQMNSMKPEDTAVYYCNAVIWLTSSEYWGQGTQVTVSS | high polyreactivity
39 | QVQLVESGVGLVQAGGSLRLSCAASGFIFKRYAMGWYRQAPGKERELVATISNSGGRTYYADSVKWRFTISRDNAKNTVYLQMNSLKPEDTAVYYCAALPFWWGGYWGQGTQVTVSS | high polyreactivity
40 | QVQLVESGGGLVQAGGSLRLSCAAYGRTFASYALGWYRQAPGKEREFVAVISVNGGNTYYADSVKGRFTISRDNAKNTVYLQMNSLKPEDTAVYYCARFDGWYQGYYPLYEFDYWGQGTQVTVSS | high polyreactivity
41 | QVQLVESGGGLVQAGGSLRLSCAASGRTFPENAKGWYTQAPGKEREFVAVISSGGGSTTYADSVKGRFTISRDNAKNTVYLQMNSLKPEDTAVYYCATEYYFHGYWITYSWGQGTQVTVSS | low polyreactivity
42 | QVQLVESGGGLVQAGGSLRLSCAASGFTFRNYAMGWYRQAPGKERELVAAISQSGGITYYADTVKGRFTISRDNAKNTVYLQMYSLKPEDTAVYYCAAERFPRSSKGYFRTYDYWGQGTQVTVSS | high polyreactivity
43 | QVQLVVSGGGLVQAGGSLRLSCAASGSIFRYYAMGWFRQAPGQERELVASITRGGTSTYYADSVKGRFTISRDNAKNTVYLQMNSLKPDDTAVYYCAAKGYLSRYDNWGLGTQVTVSS | high polyreactivity
